5 proteins from patent publication US20090226946 can be followed below.

First the molecules themselves.
T1: S5a, P55036
T1 chain: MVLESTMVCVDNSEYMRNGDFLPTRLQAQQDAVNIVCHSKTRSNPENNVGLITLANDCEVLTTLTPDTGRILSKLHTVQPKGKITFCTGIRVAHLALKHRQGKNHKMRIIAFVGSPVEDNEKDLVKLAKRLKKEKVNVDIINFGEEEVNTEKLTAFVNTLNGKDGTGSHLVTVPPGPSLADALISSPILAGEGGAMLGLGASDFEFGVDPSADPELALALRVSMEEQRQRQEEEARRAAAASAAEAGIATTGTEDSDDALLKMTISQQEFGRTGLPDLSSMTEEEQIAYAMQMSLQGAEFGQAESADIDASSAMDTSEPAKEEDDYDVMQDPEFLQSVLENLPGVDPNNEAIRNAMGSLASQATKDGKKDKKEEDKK

B1: GST-Siah2 (protein)
chain: MSRPSSTGPSANKPCSKQPPPQPQHTPSPAAPPAAATISAAGPGSSAVPAAAAVISGPGGGGGAGPVSPQHHELTSLFECPVCFDYVLPPILQCQAGHLVCNQCRQKLSCCPTCRGALTPSIRNLAMEKVASAVLFPCKYATTGCSLTLHHTEKPEHEDICEYRPYSCPCPGASCKWQGSLEAVMSHLMHAHKSITTLQGEDIVFLATDINLPGAVDWVMMQSCFGHHFMLVLEKQEKYEGHQQFFAIVLLIGTRKQAENFAYRLELNGNRRRLTWEATPRSIHDGVAAAIMNSDCLVFDTAIAHLFADNGNLGINVTISTCCP
B2: GST-Murf1 (protein)
chain: MDYKSSLIQDGNPMENLEKQLICPICLEMFTKPVVILPCQHNLCRKCANDIFQAANPYWTSRGSSVSMSGGRFRCPTCRHEVIMDRHGVYGLQRNLLVENIIDIYKQECSSRPLQKGSHPMCKEHEDEKINIYCLTCEVPTCSMCKVFGIHKACEVAPLQSVFQGQKTELNNCISMLVAGNDRVQTIITQLEDSRRVTKENSHQVKEELSQKFDTLYAILDEKKSELLQRITQEQEKKLSFIEALIQQYQEQLDKSTKLVETAIQSLDEPGGATFLLTAKQLIKSIVEASKGCQLGKTEQGFENMDFFTLDLEHIADALRAIDFGTDEEEEEFIEEEDQEEEESTEGKEEGHQ
B3: GST-E6AP (protein)
chain: MEKLHQCYWKSGEPQSDDIEASRMKRAAAKHLIERYYHQLTEGCGNEACTNEFCASCPTFLRMDNNAAAIKALELYKINAKLCDPHPSKKGASSAYLENSKGAPNNSCSEIKMNKKGARIDFKDVTYLTEEKVYEILELCREREDYSPLIRVIGRVFSSAEALVQSFRKVKQHTKEELKSLQAKDEDKDEDEKEKAACSAAAMEEDSEASSSRIGDSSQGDNNLQKLGPDDVSVDIDAIRRVYTRLLSNEKIETAFLNALVYLSPNVECDLTYHNVYSRDPNYLNLFIIVMENRNLHSPEYLEMALPLFCKAMSKLPLAAQGKLIRLWSKYNADQIRRMMETFQQLITYKVISNEFNSRNLVNDDDAIVAASKCLKMVYYANVVGGEVDTNHNEEDDEEPIPESSELTLQELLGEERRNKKGPRVDPLETELGVKTLDCRKPLIPFEEFINEPLNEVLEMDKDYTFFKVETENKFSFMTCPFILNAVTKNLGLYYDNRIRMYSERRITVLYSLVQGQQLNPYLRLKVRRDHIIDDALVRLEMIAMENPADLKKQLYVEFEGEQGVDEGGVSKEFFQLVVEEIFNPDIGMFTYDESTKLFWFNPSSFETEGQFTLIGIVLGLAIYNNCILDVHFPMVVYRKLMGKKGTFRDLGDSHPVLYQSLKDLLEYEGNVEDDMMITFQISQTDLFGNPMMYDLKENGDKIPITNENRKEFVNLYSDYILNKSVEKQFKAFRRGFHMVTNESPLKYLFRPEEIELLICGSRNLDFQALEETTEYDGGYTRDSVLIREFWEIVHSFTDEQKRLFLQFTTGTDRAPVGGLGKLKMIIAKNGPDTERLPTSHTCFNVLLLPEYSSKEKLKERLLKAITYAKGFGML
B4: His-CHIP (protein)
chain: MKGKEEKEGGARLGAGGGSPEKSPSAQELKEQGNRLFVGRKYPEAAACYGRAITRNPLVAVYYTNRALCYLKMQQHEQALADCRRALELDGQSVKAHFFLGQCQLEMESYDEAIANLQRAYSLAKEQRLNFGDDIPSALRIAKKKRWNSIEERRIHQESELHSYLSRLIAAERERELEECQRNHEGDEDDSHVRAQQACIEAKHDKYMADMDELFSQVDEKRKKRDIPDYLCGKISFELMREPCITPSGITYDRKDIEEHLQRVGHFDPVTRSPLTQEQLIPNLAMKEVIDAFISENGWVEDY
B5: GST-Nedd4 (protein)
chain: MATCAVEVFGLLEDEENSRIVRVRVIAGIGLAKKDILGASDPYVRVTLYDPMNGVLTSVQTKTIKKSLNPKWNEEILFRVHPQQHRLLFEVFDENRLTRDDFLGQVDVPLYPLPTENPRLERPYTFKDFVLHPRSHKSRVKGYLRLKMTYLPKTSGSEDDNAEQAEELEPGWVVLDQPDAACHLQQQQEPSPLPPGWEERQDILGRTYYVNHESRRTQWKRPTPQDNLTDAENGNIQLQAQRAFTTRRQISEETESVDNRESSENWEIIREDEATMYSNQAFPSPPPSSNLDVPTHLAEELNARLTIFGNSAVSQPASSSNHSSRRGSLQAYTFEEQPTLPVLLPTSSGLPPGWEEKQDERGRSYYVDHNSRTTTWTKPTVQATVETSQLTSSQSSAGPQSQASTSDSGQQVTQPSEIEQGFLPKGWEVRHAPNGRPFFIDHNTKTTTWEDPRLKIPAHLRGKTSLDTSNDLGPLPPGWEERTHTDGRIFYINHNIKRTQWEDPRLENVAITGPAVPYSRDYKRKYEFFRRKLKKQNDIPNKFEMKLRRATVLEDSYRRIMGVKRADFLKARLWIEFDGEKGLDYGGVAREWFFLISKEMFNPYYGLFEYSATDNYTLQINPNSGLCNEDHLSYFKFIGRVAGMAVYHGKLLDGFFIRPFYKMMLHKPITLHDMESVDSEYYNSLRWILENDPTELDLRFIIDEELFGQTHQHELKNGGSEIVVTNKNKKEYIYLVIQWRFVNRIQKQMAAFKEGFFELIPQDLIKIFDENELELLMCGLGDVDVNDWREHTKYKNGYSANHQVIQWFWKAVLMMDSEKRIRLLQFVTGTSRVPMNGFAELYGSNGPQSFTVEQWGTPEKLPRAHTCFNRLDLPPYESFEELWDKLQMAIENTQGFDGVD

The target of this series is T1, S5a, P55036.
For B1, the “Ubiquitinated S5a? (in vitro ubiquitination assay, Western blot with anti-S5a)” value is “Yes (low)”.
For B2 the value was “Yes”.
For B3 the value was “Yes”.
Consider B4, for which the “Ubiquitinated S5a? (in vitro ubiquitination assay, Western blot with anti-S5a)” value is listed as “Yes”.
The entry for B5 is “Yes”.
